Reference: US20080108569A1, “Compositions and Methods for Treating Diseases Associated With Phlpp” (The Regents of the University of California, priority 2005, published 2008)
Values belong to the molecule of their own block, whether it stands above or below them.

Legend:
Akt = target: T1, Akt (Homo sapiens, UniProt P31749); assay: phosphatase assay with purified GST-tagged PHLPP2 PP2C domain and pure phosphorylated Akt; format: biochemical; details: in 5 minutes, pure
T1 construct: 6His; made in house; host or cells: Akt1: baculovirus-infected Sf21 cells; HA-PHLPP2: transfected 293T cells, immunoprecipitated with HA antibody
T1 sequence (P31749 whole entry, the tested form may be a part): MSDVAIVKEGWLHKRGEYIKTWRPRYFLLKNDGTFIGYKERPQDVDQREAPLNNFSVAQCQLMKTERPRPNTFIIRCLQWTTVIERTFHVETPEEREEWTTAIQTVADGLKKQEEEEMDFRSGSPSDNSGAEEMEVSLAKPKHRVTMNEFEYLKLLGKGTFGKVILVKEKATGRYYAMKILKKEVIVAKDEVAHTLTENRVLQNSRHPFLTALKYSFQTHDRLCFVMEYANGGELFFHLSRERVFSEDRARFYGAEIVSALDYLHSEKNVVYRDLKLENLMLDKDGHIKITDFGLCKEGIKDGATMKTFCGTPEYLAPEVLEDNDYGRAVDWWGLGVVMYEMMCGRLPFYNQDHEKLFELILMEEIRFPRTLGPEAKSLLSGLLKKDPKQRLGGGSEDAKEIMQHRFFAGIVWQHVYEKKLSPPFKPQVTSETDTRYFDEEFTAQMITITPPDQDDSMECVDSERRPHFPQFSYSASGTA
Protocol: A GST-fusion protein of PHLPP-1α-PP2C was expressed in BL21 (DE3) and purified using glutathione-Sepharose. The GST-PP2C proteins were eluted from the beads in PBS containing 10 mM glutathione and 1 mM DTT, and dialyzed against 50 mM Tris (pH 7.4) and 1 mM DTT. His-tagged Akt was expressed and purified from baculovirus-infected Sf21 cells. Briefly, Sf21 cells were maintained in SF-900 II media (Invitrogen) and infected with baculovirus encoding His-Akt for 3 days. To obtain maximally phosphorylated Akt as substrate, the infected cells were treated with 10% FBS and calyculin A (100 nM) for 15 minutes prior to lysis. The infected cells were lysed in PBS containing 1% Triton X-100 and 10 mM imidazole, and His-Akt proteins were purified using Ni-NTA beads (Qiagen). The dephosphorylation reactions were carried out in a reaction buffer containing 50 mM Tris (pH 7.4), 1 mM DTT and 5 mM MnCl2 at 30° C. for 0-30 minutes. […]
GST-PP2C was expressed in BL21 bacterial cells; phosphatase assays were performed using the purified GST-PP2C construct conjugated to glutathione-sepharose and pure Akt as a substrate as described above. The activity of full length HA-PHLPP2 was assessed by expressing and immunoprecipitating PHLPP2 from 293T or H157 cell lysates. […]

LN229 cells [1] = assay: growth rate of glioblastoma cells transfected with PHLPP (viable cells in G418 media); format: cell-based, human; details: glioblastoma cell line wild-type in PTEN
Protocol: (§1) LN229 cells were transfected with vector, HA-PHLPP or HA-ΔC. Approximately 30 hours post-transfection, the cells were switched to selection media (DMEM, 10% FBS, 1% penicillin/streptomycin and 800 μg/ml G418). The viable cells were counted after 7 days in selection media. The number of viable cells reflects the effect of PHLPP on cell proliferation. The G418 resistant stable cells were propagated and expanded for an additional 2-3 passages to obtain the number of cells needed for mice injection. For subcutaneous inoculation, 3×10^6 or 5×10^6 cells were injected into 4- to 5-week old female nude mice of BALB/c background. The size of tumors was measured once a week with a caliper, and tumor volumes were defined as (longest diameter)×(shortest diameter)^2×0.5. Tumors were excised from individual mice and flash frozen in liquid N2. The tumor samples were homogenized in buffer A, and detergent-solubilized lysates were subjected to SDS-PAGE and Western blotting analysis.

LN229 cells [2] = assay: tumorigenicity of subcutaneously injected glioblastoma cells transfected with PHLPP; format: in vivo, nude mice of BALB/c background; details: subcutaneous injection
Protocol: as §1

dephosphorylation of Ser 473 (P473) (Akt): 82+6%
dephosphorylation of Thr 308 (P308) (Akt): 70+2%
B1: PHLPP2 PP2C domain: GST-tagged PP2C domain of PHLPP2 (residues 780-1030) expressed in bacteria (protein)
chain: TSTFWSHGLAEMAGQRNKLCVSALAMDSFAEGVGAVYGMFDGDRNEELPRLLQCTMADVLLEEVQQSTNDTVFMANTFLVSHRKLGMAGQKLGSSALLCYIRPDTADPASSFSLTVANVGTCQAVLCRGGKPVPLSKVFSLEQDPEEAQRVKDQKAIITEDNKVNGVTCCTRMLGCTYLYPWILPKPHISSTPLTIQDELLILGNKALWEHLSYTEAVNAVRHVQDPLAAAKKLCTLAQSYGCQDNVGAMV
modifications: left off: a dimerising Fc or GST
notes: GST-tagged PP2C domain of PHLPP2 (residues 780-1030) expressed in bacteria

B2: PHLPP: PH domain Leucine rich repeat Protein Phosphatase; HA-PHLPP-1α construct transfected into LN229 glioblastoma cells (SEQ ID NO: 2) (protein, listed as Homo sapiens)
chain: MDSEIGCLIRFYAGKPHSTGSSERIQLSGMYNVRKGKMQLPVNRWTRRQVILCGTCLIVSSVKDSLTGKMHVLPLIGGKVEEVKKHQHCLAFSSSGPQSQTYYICFDTFTEYLRWLRQVSKVASQRISSVDLSCCSLEHLPANLFYSQDLTHLNLKQNFLRQNPSLPAARGLNELQRFTKLKSLNLSNNHLGDFPLAVCSIPTLAELNVSCNALRSVPAAVGVMHNLQTFLLDGNFLQSLPAELENMKQLSYLGLSFNEFTDIPEVLEKLTAVDKLCMSGNCVETLRLQALRKMPHIKHVDLRLNVIRKLIADEVDFLQHVTQLDLRDNKLGDLDAMIFNNIEVLHCERNQLVTLDICGYFLKALYASSNELVQLDVYPVPNYLSYMDVSRNRLENVPEWVCESRKLEVLDIGHNQICELPARLFCNSSLRKLLAGHNQLARLPERLERTSVEVLDVQHNQLLELPPNLLMKADSLRFLNASANKLESLPPATLSEETNSILQELYLTNNSLTDKCVPLLTGHPHLKILHMAYNRLQSFPASKMAKLEELEEIDLSGNKLKAIPTTIMNCRRMHTVIAHSNCIEVFPEVMQLPEIKCVDLSCNELSEVTLPENLPPKLQELDLTGNPRLVLDHKTLELLNNIRCFKIDQPSTGDASGAPAVWSHGYTEASGVKNKLCVAALSVNNFCDNREALYGVFDGDRNVEVPYLLQCTMSDILAEELQKTKNEEEYMVNTFIVMQRKLGTAGQKLGGAAVLCHIKHDPVDPGGSFTLTSANVGKCQTVLCRNGKPLPLSRSYIMSCEEELKRIKQHKAIITEDGKVNGVTESTRILGYTFLHPSVVPRPHVQSVLLTPQDEFFILGSKGLWDSLSVEEAVEAVRNVPDALAAAKKLCTLAQSYGCHDSISAVVVQLSVTEDSFCCCELSAGGAVPPPSPGIFPPSVNMVIKDRPSDGLGVPSSSSGMASEISSELSTSEMSSEVGSTASDEPPPGALSENSPAYPSEQRCMLHPICLSNSFQRQLSSATFSSAFSDNGLDSDDEEPIEGVFTNGSRVEVEVDIHCSRAKEKEKQQHLLQVPAEASDEGIVISANEDEPGLPRKADFSAVGTIGRRRANGSVAPQERSHNVIEVATDAPLRKPGGYFAAPAQPDPDDQFIIPPELEEEVKEIMKHHQEQQQQQQPPPPPQLQPQLPRHTQLDQLPDYYDTPL
modifications: HA tag
decrease of the growth rate (LN229 cells [1]): approximately 50%
ability of the cells to induce tumors (LN229 cells [2]): dramatically reduces
